This experiment addresses T1, Tau protein bound to Fyn protein (N-GFP-Fyn / C-GFP-Tau) (Homo sapiens, UniProt P06241).
T1 construct: A nucleic acid encoding amino acids 83-145 of human Fyn was cloned into the N-GFP-pLVX vector; N-GFP (GFP aa 1-158) with GGSG linker and XbaI-encoded SR; expressed in transfected cells; host or cells: COS-7 cells, lentiviral pLVX constructs, stably expressed
The experiment is described as follows: split-GFP reassembly assay of Tau/Fyn binding in transfected COS-7 cells. The format is cell-based. As to conditions: 200 nM peptide, 1 hour at 37 degree Celsius; COS-7 cells expressing N-GFP-Fyn and N-terminal C-GFP-Tau; plate reader or fluorescence microscope (FIG. 5). An excerpt:
Lentiviruses containing either combination of constructs, i.e. N-terminal C-GFP fused to Tau and N-GFP fused to Fyn, or C-terminal C-GFP fused to Tau and N-GFP fused to Fyn, were then generated using standard protocols (e.g. Krupka et al., Plasmid, 2010, 63(3):155-60) and stably expressed in COS-7 cells.
However, transfection of constructs encoding N-terminal C-GFP fused to Tau and N-GFP fused to Fyn did result in green fluorescing cells (FIG. 5).
Cells generated by the methods described in Example 1 were grown till confluent in 96-well plates and then the fluorescence was measured in a 96-well plate reader (Omega, BMG) or by via fluorescence microscope. The cells were then incubated with 200 nM of the Tat-7PXXP peptide for 1 hour at 37 degree Celsius. The fluorescence was again measured in a 96-well plate reader (Omega, BMG) or via a fluorescence microscope.

No end group written: not given here.

T1 sequence (P06241 83-145): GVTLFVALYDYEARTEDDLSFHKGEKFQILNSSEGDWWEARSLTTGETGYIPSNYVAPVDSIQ

YGRKKRRQRRRTPPKSPSS [Tat-7PXXP]: the “fluorescence of the transfected cells” value is reported as “negligible”.

These data come from patent US20150017657A1, “ASSAY AND METHOD FOR IDENTIFYING COMPOUNDS THAT INHIBIT EXCITOTOXIC SIGNALS” (THE UNIVERSITY OF SYDNEY, priority 2011, published 2015).
